Measured values as given in patent US20220324953A1 (JIANGSU HENGRUI MEDICINE, published 2022).
Changes are numbered by the printed parent chain.

T1: Mouse CTGF protein-His tag (mouse, UniProt P29268 26-348)
T1 construct: C-terminal His tag; also called mouse CTGF-his protein; mouse CTGF fusion protein
T1 sequence: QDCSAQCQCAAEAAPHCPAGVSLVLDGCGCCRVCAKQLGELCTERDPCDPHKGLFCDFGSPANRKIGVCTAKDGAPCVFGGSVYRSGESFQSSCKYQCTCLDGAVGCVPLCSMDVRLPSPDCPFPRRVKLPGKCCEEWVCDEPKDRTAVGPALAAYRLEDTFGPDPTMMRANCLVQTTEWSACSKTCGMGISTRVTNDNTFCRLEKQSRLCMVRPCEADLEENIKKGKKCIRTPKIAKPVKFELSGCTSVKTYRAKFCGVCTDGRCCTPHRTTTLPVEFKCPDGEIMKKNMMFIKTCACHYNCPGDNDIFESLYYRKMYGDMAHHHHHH

T2: human CTGF protein (R&D, Cat No. 9190-CC) (human, UniProt P29279 27-349)
T2 construct: Bought protein; also called CTGF recombinant protein; CTGF (R&D)
T2 sequence: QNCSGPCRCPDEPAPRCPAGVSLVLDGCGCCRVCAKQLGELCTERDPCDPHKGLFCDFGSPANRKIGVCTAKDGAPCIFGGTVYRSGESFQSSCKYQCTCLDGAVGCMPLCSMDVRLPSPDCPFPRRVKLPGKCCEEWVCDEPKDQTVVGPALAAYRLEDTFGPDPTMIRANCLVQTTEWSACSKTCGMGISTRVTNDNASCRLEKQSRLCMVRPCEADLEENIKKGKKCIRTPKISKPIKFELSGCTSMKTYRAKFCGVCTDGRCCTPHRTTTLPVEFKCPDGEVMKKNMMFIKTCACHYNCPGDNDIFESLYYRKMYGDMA

B1: positive control CTGF antibody mAb1 (antibody, V domains shown)
VH: EGQLVQSGGGLVHPGGSLRLSCAGSGFTFSSYGMHWVRQAPGKGLEWVSGIGTGGGTYSTDSVKGRFTISRDNAKNSLYLQMNSLRAEDMAVYYCARGDYYGSGSFFDCWGQGTLVTVSS
VL: DIQMTQSPSSLSASVGDRVTITCRASQGISSWLAWYQQKPEKAPKSLIYAASSLQSGVPSRFSGSGSGTDFTLTISSLQPEDFATYYCQQYNSYPPTFGQGTKLEIKR
notes: Positive control, from CN1829740B; also called pamrevlumab; FG-3019
B2: Hu147-12wk (antibody, human IgG1, kappa, V domains shown)
VH: EVQLVESGGGLVQPGGSLRLSCAASGFTFSTYAMNWVRQAPGKGLEWVGRIRTKSNNYATYYADSVKDRFTISRDDSKNSLYLQMNSLKTEDTAVYYCVETGFAYWDQGTLVTVSS
VL: EIVLTQSPATLSLSPGERATLSCSASSSVSYMHWFQQKPGQSPKLLIYSTSNLASGIPARFSGSGSGTDYTLTISSLEPEDFAVYYCQQRSSYPLTFGQGTKLEIKR
B3: Hu147-14wk (antibody, human IgG1, kappa, V domains shown)
VH: B2 VH
VL: DIQMTQSPSSLSASVGDRVTITCSASSSVSYMHWFQQKPGKSPKLLIYSTSNLASGVPSRFSGSGSGTDYTLTISSLQPEDFATYYCQQRSSYPLTFGQGTKLEIKR
B4: Hu147-34wk (antibody, human IgG1, kappa, V domains shown)
VH: B2 VH with T28S, S30N, G49A, K78E, N79S
VL: B3 VL
B5: Hu147-15wk (antibody, human IgG1, kappa, V domains shown)
VH: B2 VH
VL: B3 VL with M4L, L46W
B6: Hu147-24wk (antibody, human IgG1, kappa, V domains shown)
VH: B2 VH with S30N, G49A
VL: B3 VL
B7: Hu164-67wl (antibody, human IgG1, lambda)
heavy: not shown
light: ETVVTQEPSLTVSPGGTVTLTCRSSIGAVTTSNYANWVQQKPGQAFRGLIGGTSNRAPWTPARFSGSLLGGKAALTLSGVQPEDEAEYYCALWYSTHYVFGGGTKLTVLGQPKANPTVTLFPPSSEELQANKATLVCLISDFYPGAVTVAWKADGSPVKAGVETTKPSKQSNNKYAASSYLSLTPEQWKSHRSYSCQVTHEGSTVEKTVAPTEC
B8: Hu164-57wl (antibody, human IgG1, lambda, V domains shown)
VH: EVTLKESGPVLVKPTETLTLTCTVSGFSLSTFGVHWIRQPPGKALEWLAVIWRRGGTDYNAAFMSRLTISKDTSKSQVVLTMTNMDPVDTATYYCARDGGFDYWGQGTTVTVSS
VL: ETVVTQEPSLTVSPGGTVTLTCRSSIGAVTTSNYANWVQQKPGQAFRGLIGGTSNRAPWTPARFSGSLLGGKAALTLSGVQPEDEAEYYCALWYSTHYVFGGGTKLTVLG
B9: Hu164-68wl (antibody, human IgG1, lambda, V domains shown)
VH: B8 VH with A44G, A49G, L80F
VL: ETVVTQEPSFSVSPGGTVTLTCRSSIGAVTTSNYANWVQQTPGQAFRGLIGGTSNRAPGVPDRFSGSILGNKAALTITGAQADDESDYYCALWYSTHYVFGGGTKLTVLG
B10: Hu164-69wl (antibody, human IgG1, lambda, V domains shown)
VH: B8 VH with A44G, A49G, L80F
VL: ESVVTQPPSVSGAPGQRVTISCRSSIGAVTTSNYANWVQQLPGTAFKGLIGGTSNRAPGVPDRFSGSKSGTSASLAITGLQAEDEADYYCALWYSTHYVFGGGTKLTVLG
B11: Hu164-77wl (antibody, human IgG1, lambda, V domains shown)
VH: EVQLQESGPGLVKPSQTLSLTCTVSGFSISTFGVHWIRQHPGKGLEWIGVIWRRGGTDYNAAFMSRVTISKDTSKNQVSLKLSSVTAADTAVYYCARDGGFDYWGQGTTVTVSS
VL: B8 VL
B12: Hu164-87wl (antibody, human IgG1, lambda, V domains shown)
VH: B11 VH with I48L, V67L, L80F
VL: B8 VL

Key:
[1] = biological target: T1, Mouse CTGF protein-His tag; assay: ELISA, plate coated with mouse CTGF-his
Experimental: The binding activity of anti-mouse CTGF antibody to mouse CTGF protein was tested by ELISA assay. A 96-well microtiter plate was directly coated with the mouse CTGF fusion protein. The signal strength upon the addition of the antibody was used to determine the binding activity of the antibody to mouse CTGF. The specific experimental procedures were as follows:
The mouse CTGF-his protein was diluted with PBS, pH 7.4 (Shanghai Yuanpei, Cat No. B320) buffer to a concentration of 0.5 μg/ml, added into the 96-well microtiter plate (Corning, Cat No. CLS3590-100EA) at 50 μl/well, and incubated in an incubator at 37° C. for 2 hours. The liquid was removed, 250 μl/well blocking solution (5% skim milk (BD skim milk, Cat No. 232100) diluted in PBS) was added, and incubated in an incubator at 37° C. for 3 hours or at 4° C. overnight (16-18 hours) for blocking. After the blocking was finished, the blocking solution was removed, the plate was washed for 3 times with PBST buffer (PBS containing 0.1% Tween-20, pH 7.4), 50 μl/well of various concentrations of each of the test antibodies (antibodies purified from hybridoma or humanized antibodies) diluted with sample dilution solution were added, and incubated in an incubator at 37° C. for 1 hours. After the incubation was finished, the plate was washed for 3 times with PBST, 50 μl/well of HRP-labeled goat anti-mouse secondary antibody (Jackson Immuno Research, Cat No. 115-035-003) or goat anti-human secondary antibody (Jackson Immuno Research, Cat No. 109-035-003) diluted with sample dilution solution was added, and incubated at 37° C. for 1 hour. The plate was washed for 5 times with PBST, 50 μl/well of TMB chromogenic substrate (KPL, Cat No. 52-00-03) was added, incubated at room temperature for 5-10min, and 50 μl/well of 1 M H₂SO₄ was added to stop the reaction. The absorbance value was read by a microplate reader (Molecular Devices, VERSA max) at a wavelength of 450 nm, and the data was analyzed with GraphPad Prism 5. The binding of CTGF antibody to mouse CTGF protein was calculated as EC50 value.

[2] = biological target: T2, human CTGF protein (R&D, Cat No. …); assay: ELISA, plate coated with CTGF (R&D 9190-CC)
In short: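 Plates were coated with recombinant human CTGF at 0.2 μg/ml in PBS pH 7.4 and blocked with 5% skim milk. Antibodies at serial concentrations were incubated 1 h at 37 °C, then detected with HRP anti-mouse or anti-human secondary and TMB at 450 nm. EC50 values were derived from the binding curves.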

Binder	EC50 [1]	EC50 [2]
B1	0.077 nM	0.067 nM
B2	0.249 nM	0.046 nM
B3	0.431 nM	0.073 nM
B4	0.664 nM	0.134 nM
B5	0.159 nM	0.034 nM
B6	0.263 nM	0.048 nM
B7	0.049 nM	0.044 nM
B8	0.041 nM	0.044 nM
B9	0.065 nM	0.069 nM
B10	0.059 nM	0.063 nM
B11	0.058 nM	0.055 nM
B12	0.067 nM	0.055 nM
